The target in experiment [1] is cytosolic purine 5'-nucleotidase (cN-II), C-terminally truncated wild type (human) (UniProt P49902). The experiment in a line: SEC; Superdex 200 10/300 GL, 50 mM sodium phosphate pH 7.4, 100 mM NaCl, 2 mM TCEP; 200 ul of 0.5 mg/ml protein; calibrated with high molecular weight standards.
Experiment [2] shares this target. Put plainly: SAXS; truncated proteins 0.25 to 2 mg/ml in 50 mM sodium phosphate pH 7.4, 100 mM NaCl, 2 mM TCEP, 5 % glycerol; BM29 beamline ESRF; Guinier approximation, P(r), Porod volume.
In experiment [3] the target is cytosolic purine 5'-nucleotidase (cN-II) R367Q, C-terminally truncated (human) (UniProt P49902). The experiment in a line: SEC; Superdex 200 10/300 GL, 50 mM sodium phosphate pH 7.4, 100 mM NaCl, 2 mM TCEP; 200 ul of 0.5 mg/ml protein; calibrated with high molecular weight standards. (SEC sorts molecules by how far they enter the pores of the column.)
Experiment [4] shares this target. Put plainly: SAXS; truncated proteins 0.25 to 2 mg/ml in 50 mM sodium phosphate pH 7.4, 100 mM NaCl, 2 mM TCEP, 5 % glycerol; BM29 beamline ESRF; Guinier approximation, P(r), Porod volume.
For experiment [5], the target named is cytosolic purine 5'-nucleotidase (cN-II) R238W, C-terminally truncated (human) (UniProt P49902). Put plainly: SEC; Superdex 200 10/300 GL, 50 mM sodium phosphate pH 7.4, 100 mM NaCl, 2 mM TCEP; 200 ul of 0.5 mg/ml protein; calibrated with high molecular weight standards.
The target is the same in experiment [6]. Put plainly: SAXS; truncated proteins 0.25 to 2 mg/ml in 50 mM sodium phosphate pH 7.4, 100 mM NaCl, 2 mM TCEP, 5 % glycerol; BM29 beamline ESRF; Guinier approximation, P(r), Porod volume.
In experiment [7] the target is cytosolic purine 5'-nucleotidase (cN-II) L375F, C-terminally truncated (human) (UniProt P49902). The experiment in a line: SEC; Superdex 200 10/300 GL, 50 mM sodium phosphate pH 7.4, 100 mM NaCl, 2 mM TCEP; 200 ul of 0.5 mg/ml protein; calibrated with high molecular weight standards.
For experiment [8] the target is unchanged. Put plainly: SAXS; truncated proteins 0.25 to 2 mg/ml in 50 mM sodium phosphate pH 7.4, 100 mM NaCl, 2 mM TCEP, 5 % glycerol; BM29 beamline ESRF; Guinier approximation, P(r), Porod volume.

This note sets out measurements from paper PMC5070119.

As for “cytosolic purine 5'-nucleotidase (cN-II), C-terminally truncated wild type (from UniProt P49902 1-536) (enzyme)”, the stoichiometry N in experiment [1] and in experiment [2] was 4 throughout.
Take “cytosolic purine 5'-nucleotidase (cN-II) R367Q, C-terminally truncated (from UniProt P49902 1-536) (enzyme)”: the stoichiometry N in experiment [3] and in experiment [4] was 4 each time.
Turning to “cytosolic purine 5'-nucleotidase (cN-II) R238W, C-terminally truncated (from UniProt P49902 1-536) (enzyme)”, the stoichiometry N in experiment [5] and in experiment [6] was 4 throughout.
On to “cytosolic purine 5'-nucleotidase (cN-II) L375F, C-terminally truncated (from UniProt P49902 1-536) (enzyme)”, for which the stoichiometry N in experiment [7] and in experiment [8] was 4 throughout.
